Test results taken from the supplement of paper PMC12042874.
± gives the uncertainty stated by the source.

Assay: amyloid nucleation score (Sup35N fusion, yeast selection) (log enrichment); library NNK3; higher = more nucleation; inactive = no reads after selection
Summary of the method: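 Peptides of 20 random codons, each fused to Sup35N, were expressed in psi-negative yeast. Cells were induced with 100 μM copper sulfate for 24 hours and grown 7 days at 30°C on medium lacking adenine and uracil, and plasmid inserts before and after selection were Illumina-sequenced. Nucleation scores are DiMSum log enrichments of output over input reads, centred on the mode score of non-aggregating sequences, and sequences under 100 input reads were excluded.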
In the case of NFWEYQSECWRVTQW, the amyloid nucleation score is reported as “inactive”. For CQCMSFIRTNSYKDFT, the amyloid nucleation score was “inactive”. With VISCCP the amyloid nucleation score was “inactive”. In the case of TEFKAFHNCQINRSDTTLWL, the amyloid nucleation score is reported as 0.096 ± 0.68. For RVIATRDDCPFLGW, the amyloid nucleation score was “inactive”. With NLVRSDSVRFAYVKWGPMHG the amyloid nucleation score was “inactive”. In the case of CRVLDFSFSYFGMIFKLGTI, the amyloid nucleation score is reported as “inactive”. With NRVDIRLVKCYWSGDSGGVE the amyloid nucleation score was “inactive”. With NYGTLMYTVL the amyloid nucleation score was “inactive”. In the case of CCRLHRGISVNPILQSYGIM, the amyloid nucleation score is reported as “inactive”. With DYHLQLKMLRPW the amyloid nucleation score was “inactive”. In the case of KLRTSGAILVF, the amyloid nucleation score is reported as “inactive”. In the case of KMKCRVIYVLSSLIYCM, the amyloid nucleation score is reported as “inactive”. With TAMCQSLGPTATTLTGVSWG the amyloid nucleation score was “inactive”. For KGEFIRPTSMVKYTDGLESG, the amyloid nucleation score was “inactive”. With IMLGRANSIYMH the amyloid nucleation score was “inactive”. In the case of SYFTVHHSCLGHTTQHVMLS, the amyloid nucleation score is reported as “inactive”. For KLTFNRLLKT, the amyloid nucleation score was “inactive”. With RILTDGIIVLFL the amyloid nucleation score was “inactive”. For MPFPVGNFHQGDNMNVSQCG, the amyloid nucleation score was 0.61 ± 0.12. In the case of GKCRQGYTRMWHNYMLMGIL, the amyloid nucleation score is reported as “inactive”. With VYCFV the amyloid nucleation score was “inactive”. For ESDGCNNQFRHWSHCRSKNP, the amyloid nucleation score was “inactive”. For WFGEYPQFWRARSYFRTSDW, the amyloid nucleation score was “inactive”. In the case of NRMNKSEDGTSKCFESDRWG, the amyloid nucleation score is reported as “inactive”. In the case of QAGLSCD, the amyloid nucleation score is reported as “inactive”. For ATFIFSDRQSHIHLYSNTQY, the amyloid nucleation score was “inactive”. In the case of VTVQK, the amyloid nucleation score is reported as “inactive”. WRSMAFPVVK showed an amyloid nucleation score of 0.988 ± 0.13. With FRLMVGCCYGGPGREVWAGG the amyloid nucleation score was “inactive”. Substance HIVLVSRLHITAGGRF has an amyloid nucleation score of -0.179 ± 0.65. For KPQYENVMCY, the amyloid nucleation score was “inactive”. For SYRKEFSVPMATGDDSTPQH, the amyloid nucleation score was “inactive”. In the case of FLMNHVLQNW, the amyloid nucleation score is reported as “inactive”. In the case of LSNRGLIYHEGTRICATYRE, the amyloid nucleation score is reported as 0.719 ± 0.22. For VATHTSASHLRS, the amyloid nucleation score was “inactive”. With PLTFT the amyloid nucleation score was “inactive”. In the case of DVFSDSQVVENRV, the amyloid nucleation score is reported as “inactive”. For CVRTGWIIMDSNKLD, the amyloid nucleation score was “inactive”. For VVSLPTNILSNTIGEYMEVQ, the amyloid nucleation score was “inactive”. With WWTLKPGESVVRGLRVCGAP the amyloid nucleation score was “inactive”. For VLGDSNFF, the amyloid nucleation score was “inactive”. In the case of NLCRAI, the amyloid nucleation score is reported as 0.256 ± 0.36. With FILSVCYARRDLTLKRTPSR the amyloid nucleation score was “inactive”. For LVLYYCVTG, the amyloid nucleation score was “inactive”. In the case of SLRSCVYPMDDGIMQCWSSR, the amyloid nucleation score is reported as “inactive”. In the case of LHPLYRFSANSSKDLFTSRT, the amyloid nucleation score is reported as “inactive”. For GAFPRGSS, the amyloid nucleation score was “inactive”. Work on NGFSFRLGWH yielded an amyloid nucleation score of 1.55 ± 0.1. In the case of AWVDLVLRGFKGYLTYRSLH, the amyloid nucleation score is reported as “inactive”. For MFVVYLGYRRAVIDNDALED, the amyloid nucleation score was “inactive”. For SNSRNSTGVVQMTRIPKMMR, the amyloid nucleation score was “inactive”. In the case of EVWRVSDSYSVDEIFVLLNL, the amyloid nucleation score is reported as “inactive”. With YFLNSQVSNLLGS the amyloid nucleation score was “inactive”. In the case of RGMYMRYLGFLDHLNLRVFC, the amyloid nucleation score is reported as “inactive”. For ILYFDVTISV, the amyloid nucleation score was “inactive”. In the case of SWLFHRYFVGSYCVLMDMRV, the amyloid nucleation score is reported as “inactive”. In the case of RIEYVVPITPM, the amyloid nucleation score is reported as “inactive”. With IIGSCGGFVSLACSGTLDGV the amyloid nucleation score was 0.538 ± 0.2. For EDSMRYCH, the amyloid nucleation score was “inactive”. For WCTSFGELEVYRVALILRTA, the amyloid nucleation score was “inactive”. In the case of IEWVRNTLSISLIERYRLNG, the amyloid nucleation score is reported as “inactive”. For DSFLSGSEELSVSDCCCIAF, the amyloid nucleation score was “inactive”. With ISTDDKIIGST the amyloid nucleation score was “inactive”. For IRLHLLLGFVV, the amyloid nucleation score was “inactive”. In the case of NYRERS, the amyloid nucleation score is reported as “inactive”. With LASRRQMMWVVHRFLNGAVH the amyloid nucleation score was “inactive”. With WETFPHSFINVLIWDSFELV the amyloid nucleation score was “inactive”. For FGIWCTIPWLLFRYSVDMFM, the amyloid nucleation score was “inactive”. In the case of IFHGSLYGFHYEPCLQAWAA, the amyloid nucleation score is reported as “inactive”. For ATIYICGLNPNRVAACIVLE, the amyloid nucleation score was “inactive”. With NTVTHR the amyloid nucleation score was “inactive”. Substance ILGGGSIFKSRQNMIWYTLS has an amyloid nucleation score of 0.207 ± 0.61. In the case of GSATCAS, the amyloid nucleation score is reported as “inactive”. With RPPHYQCMCSLVLSSRRNIQ the amyloid nucleation score was “inactive”. Substance CLSTPMVMLICFM has an amyloid nucleation score of 0.904 ± 0.29. For LVALKSHDT, the amyloid nucleation score was “inactive”. With YRIVLIFCEISNAMGVVQTS the amyloid nucleation score was “inactive”. In the case of LFRVSWMLGNKIDISKSIYR, the amyloid nucleation score is reported as “inactive”. For TTCFTHGKLPNIRAWSIWTQ, the amyloid nucleation score was “inactive”. HIRFWSDNRT gave an amyloid nucleation score of 0.468 ± 0.2. With IRVIISGVLGTELKNALAKY the amyloid nucleation score was “inactive”. With RREPQCYYWGAYCSVAASPA the amyloid nucleation score was “inactive”. For LSWFIYWDKIRGWSKMTIGQ, the amyloid nucleation score was “inactive”. With RVCLL the amyloid nucleation score was -0.539 ± 1.4. With RSQFV the amyloid nucleation score was “inactive”. For TMVYPKIPGGRTLAWDMTGR, the amyloid nucleation score was “inactive”. With YNQCWLTIDINFRYLLA the amyloid nucleation score was 1.4 ± 0.15. In the case of DTISGGEWDNEVRPYRILLL, the amyloid nucleation score is reported as “inactive”. With IRQGNVYK the amyloid nucleation score was “inactive”. Substance WIRYTFYQNFRIL has an amyloid nucleation score of -0.744 ± 0.8. For NNCRSLY, the amyloid nucleation score was 0.927 ± 0.21. With VTTIVYDSYCPLPRCWTWVG the amyloid nucleation score was “inactive”. With VNYSLLRVNMFKYGSSYPIP the amyloid nucleation score was “inactive”. In the case of RSYFC, the amyloid nucleation score is reported as “inactive”. In the case of QLSVNMYDCYDNGEHLRIGG, the amyloid nucleation score is reported as “inactive”. In the case of FRQYKSPGDLPRMDAVACGK, the amyloid nucleation score is reported as -0.832 ± 2.5. In the case of IIYILPLCPRV, the amyloid nucleation score is reported as “inactive”. For LVVIWSRYSPRRNYPVTSNM, the amyloid nucleation score was 0.679 ± 0.24. With CNSGWGTYVV the amyloid nucleation score was “inactive”. For CNFLGSRLGYFGNYIFI, the amyloid nucleation score was “inactive”. With VVWQTHQVHMVMYERVCTWD the amyloid nucleation score was “inactive”. For LCKIRECHCNLYHRVYMGWN, the amyloid nucleation score was “inactive”. For TKTFSDVMLYQCAARCKDLH, the amyloid nucleation score was “inactive”. For NTIHITTWDELVQLAQCDNL, the amyloid nucleation score was “inactive”. With LNWVKTYVAYLFFYSISKRC the amyloid nucleation score was “inactive”. In the case of LRGCLKSVIDTSLG, the amyloid nucleation score is reported as “inactive”. For NTLDERDCRSKLFAFLLRPS, the amyloid nucleation score was “inactive”. With VCAGNTDPWSQELIPYRKC the amyloid nucleation score was “inactive”. With QILLSLQIWRWWVNRII the amyloid nucleation score was “inactive”. ALSPHSNCIYNCLSCCCDTD showed an amyloid nucleation score of 0.655 ± 0.15. For LYCGDSI, the amyloid nucleation score was “inactive”. With RRQLLVGIP the amyloid nucleation score was “inactive”. For QMRCLY, the amyloid nucleation score was “inactive”. In the case of CYWIASRLFTKLSNYLSISG, the amyloid nucleation score is reported as “inactive”. For KYWLMVWRFNYCMTYNGGLE, the amyloid nucleation score was “inactive”. For VRCKVMSSAAATVFFVSGAV, the amyloid nucleation score was “inactive”. With MCFEVLHACRYFVRHSSQRI the amyloid nucleation score was “inactive”. With AFCRNRTNVCMICYLRSG the amyloid nucleation score was 0.907 ± 0.17. With AYMVTKLVKR the amyloid nucleation score was “inactive”. In the case of YSRDSGCRIKVVPALTVRGR, the amyloid nucleation score is reported as “inactive”. With GTNIFVKTDTYCPFICST the amyloid nucleation score was “inactive”. With LVLRFTSIDFKLFRRHST the amyloid nucleation score was “inactive”. For TVIRRLYCLNGLVANTSFAV, the amyloid nucleation score was “inactive”. For FKCTVIGDTILPNTFSLWRF, the amyloid nucleation score was “inactive”. With VSVRYPLNKECFYDCL the amyloid nucleation score was “inactive”. Substance MCQNANRYTGMSLVMFVGSV has an amyloid nucleation score of 1.24 ± 0.12. With CLIVTLTHMS the amyloid nucleation score was 1.64 ± 0.062. For FCYEHSLWLCLSYKVTVMRM, the amyloid nucleation score was 1.08 ± 0.15. RTRFVCICTSSNSLLYGRSS gave an amyloid nucleation score of 0.714 ± 0.25. With YWVGEWLMCPYTR the amyloid nucleation score was “inactive”. For FSEASPLYVTSPRQSSLPRP, the amyloid nucleation score was “inactive”. With TCSHVYQTYAVKAASKNIMI the amyloid nucleation score was “inactive”. In the case of SSIGCPYLSYDYCFPTMWIW, the amyloid nucleation score is reported as “inactive”. For LCGYGSGKTISG, the amyloid nucleation score was “inactive”. Work on NQALNILFYLNSSKSCVYPY yielded an amyloid nucleation score of 2.47 ± 0.063. For NHKPLWFFDVATTGTGLNR, the amyloid nucleation score was “inactive”. In the case of FTLDYLNSGSI, the amyloid nucleation score is reported as “inactive”. For NVCAVNFAWSITIWRYNY, the amyloid nucleation score was “inactive”. In the case of LNTRVGSFTNRLWSRMKEGG, the amyloid nucleation score is reported as “inactive”. With ILFSQETRYELSL the amyloid nucleation score was “inactive”. With FSCMTADSNSGIVRVR the amyloid nucleation score was “inactive”. With MINSHDL the amyloid nucleation score was “inactive”. In the case of IVSMDQESTLQWNVPGYVLL, the amyloid nucleation score is reported as “inactive”. With YYCDLRSYIRSPG the amyloid nucleation score was “inactive”. With YTVRMWKDDVRARRGSQGVW the amyloid nucleation score was “inactive”. With TLHWCMVSNHRAKCYCLFET the amyloid nucleation score was 0.472 ± 0.42. With VVDCWSVKATSDSYDGMWGV the amyloid nucleation score was “inactive”. For ISIGYEQFLDSCNLLSIYLT, the amyloid nucleation score was “inactive”. In the case of DVSLVGSVMRIELLEMCVSR, the amyloid nucleation score is reported as “inactive”. In the case of LRGCVNAYLRYHTRGLVVLR, the amyloid nucleation score is reported as “inactive”. In the case of DWNRLFRVD, the amyloid nucleation score is reported as “inactive”. With ITMLMLATVKYSFYADLRFL the amyloid nucleation score was “inactive”. For ASLRYYGMAVVSSVYKMVVV, the amyloid nucleation score was “inactive”. With IWNKFGIIFYVVYYSIRTNL the amyloid nucleation score was “inactive”. For IICYSWRRFLC, the amyloid nucleation score was “inactive”. In the case of ITKKRYNCRMFLIT, the amyloid nucleation score is reported as “inactive”. FLGDYRILSLLFYI showed an amyloid nucleation score of 2.49 ± 0.053. In the case of VFFETNVMGQEWYGGHVKR, the amyloid nucleation score is reported as “inactive”. For VWDYLVAYYVALKNVTDSGQ, the amyloid nucleation score was “inactive”.
